Test results as given in the supplement of paper PMC10724198.
± gives the standard deviation of the averaged measurements.

Test system: Saccharomyces cerevisiae
Test: protein stability index of tFT-peptide fusion (C-terminal peptide) (PSI (0-1 scale)); higher = more stable (slower turnover)
Details: genetic background: wild type; temperature: 30 C
Protocol: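 Multiplexed protein stability (MPS) profiling in S. cerevisiae. Random 12-aa peptides (tFT-X12 library) are fused to the C-terminus of a sfGFP-mCherry tandem fluorescent timer, after mCherry and a GGGS linker. Cells are FACS-sorted into 8 mCherry/sfGFP bins and deep-sequenced. The protein stability index (PSI) is the read-weighted bin average, scaled from 0 (unstable) to 1 (stable). Only peptides with >10 reads are reported; cells were grown at 30 °C in SC-His with glucose.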
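Further: PSI is a weighted mean of sequencing reads over stability bins, variants kept only with over 10 reads, mCherry proximal and sfGFP distal, peptide attached via GGGS linker.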

Sequence | protein stability index
GPPFAPASPVPL | 0.761 ± 0.038
GPPPPPPFPPLP | 0.708 ± 0.0076
GPRQGVLEAASS | 0.636 ± 0.025
GPSIYGFEESFS | 0.691 ± 0.0093
GPSPPSPSPPPL | 0.622 ± 0.0084
GPSRTPRHPSPP | 0.701 ± 0.053
GPSWYGKNSLHK | 0.686 ± 0.051
GPVTDWPLLLFK | 0.5901 ± 0.0015
GQDNSEVLGSVQ | 0.668 ± 0.12
GQHAAVNASVVR | 0.665 ± 0.013
GQIACSECGGGG | 0.679 ± 0.027
GQKRKGTRSKVP | 0.696 ± 0.026
GQSGFGYVGSMK | 0.669 ± 0.049
GQSLGLPGRWYI | 0.775 ± 0.06
GQTMDLRKCTGP | 0.6436 ± 0.0037
GQVGDRVVSVGL | 0.694 ± 0.028
GQWCVAAALIER | 0.699 ± 0.1
GQWGGATLGLVG | 0.777 ± 0.021
GRAGLRIESSKY | 0.692 ± 0.024
GRAVCRALVEAR | 0.552 ± 0.031
GRCIPSFVLPRY | 0.693 ± 0.029
GRCSRGVEGVSG | 0.675 ± 0.034
GRCWVMCSEGEK | 0.64 ± 0.057
GREGGEQRKEGK | 0.692 ± 0.029
GREGTEIGKWRE | 0.74 ± 0.12
GRESGNPGEPTC | 0.678 ± 0.012

Sequence | protein stability index
GRGGGVGLVVGG | 0.683 ± 0.019
GRGGLGWGEWDR | 0.699 ± 0.03
GRGSCVRISSEG | 0.706 ± 0.028
GRKQMKINDWNI | 0.636 ± 0.077
GRKWRTSCQCVS | 0.586 ± 0.026
GRLFGVVSLCLL | 0.647 ± 0.035
GRPRSSAVARSA | 0.769 ± 0.036
GRQILMLGYMVA | 0.548 ± 0.012
GRQRGGRENEGE | 0.673 ± 0.064
GRRFIPFSSFIR | 0.79 ± 0.096
GRRGPGRARRWG | 0.658 ± 0.037
GRRKGGRKAREC | 0.588 ± 0.017
GRRVAWGAQGLG | 0.602 ± 0.046
GRTPGNALKRND | 0.632 ± 0.03
GRVAPNANAVKF | 0.607 ± 0.07
GRVEDAFSGGGI | 0.643 ± 0.089
GRVRYRGSRFLG | 0.656 ± 0.013
GRVSSTRKVGAI | 0.678 ± 0.022
GRWGGRLSWAPG | 0.628 ± 0.03
GRWRCVYRGCGG | 0.646 ± 0.076
GRYAGFESRFGA | 0.666 ± 0.018
GRYCDKRLGIVG | 0.699 ± 0.011
GRYLRRDLVGVF | 0.606 ± 0.051
GRYRRRLPLCRG | 0.663 ± 0.055
GRYSGSFWSFWS | 0.719 ± 0.023
GSARLPLWSLPP | 0.793 ± 0.0082

Sequence | protein stability index
GSAVMLGVSVRV | 0.581 ± 0.043
GSCTPLPSIDFD | 0.648 ± 0.052
GSEAGEPRAGRA | 0.675 ± 0.015
GSGGVGVTSGGK | 0.682 ± 0.056
GSGLVTRTSLDY | 0.726 ± 0.045
GSGQPDPRDAIG | 0.677 ± 0.057
GSGTRNLLFIKS | 0.6708 ± 0.001
GSGWRSRRAPGP | 0.747 ± 0.047
GSIWVVGWGQGV | 0.711 ± 0.032
GSKVGGVGWRSG | 0.726 ± 0.0095
GSLGWRGLVRFF | 0.611 ± 0.013
GSLHGTSAPPRF | 0.731 ± 0.15
GSLPPCPSHAPF | 0.698 ± 0.061
GSMVRSDSFLRP | 0.66 ± 0.019
GSRRSGITSYAN | 0.687 ± 0.011
GSRVRGVMWSFL | 0.771 ± 0.067
GSSCRFGDNTVG | 0.738 ± 0.046
GSSDTYLLSLVD | 0.733 ± 0.052
GSSMLFIEQEVE | 0.683 ± 0.028
GSSPIDGLEVYG | 0.654 ± 0.041
GSSPRVFPPRFC | 0.725 ± 0.033
GSTLWGRAWGAR | 0.724 ± 0.02
GSVQHRRRDRCD | 0.676 ± 0.038
GSVRGFGGGGEE | 0.652 ± 0.049
GSWGWHVRGSGV | 0.598 ± 0.037
GSYDLMGFQFFI | 0.632 ± 0.029

Sequence | protein stability index
GTCQALARRTGD | 0.686 ± 0.061
GTCWAGAMGVVG | 0.714 ± 0.043
GTCWGGAMGVVG | 0.728 ± 0.042
GTDVFTQAVRNC | 0.641 ± 0.019
GTFCLFTPCVWM | 0.716 ± 0.044
GTKDRSNMIRKS | 0.6702 ± 0.0044
GTKGGPSGLEPP | 0.7125 ± 0.0018
GTLLRINLMTIQ | 0.663 ± 0.02
GTLYLRVTSKEK | 0.717 ± 0.044
GTPWHLRPRCPF | 0.749 ± 0.013
GTSCPCGGALRP | 0.776 ± 0.035
GTSSTPPPPAPP | 0.661 ± 0.016
GTWGGGGWSCES | 0.725 ± 0.076
GVAGGGTVVGAQ | 0.693 ± 0.017
GVARGFGVVVPA | 0.6427 ± 0.0044
GVAWGAGVGMMW | 0.732 ± 0.025
GVCWVTAGLWAI | 0.6098 ± 0.0021
GVGAPGARGVWG | 0.748 ± 0.048
GVGAWGGMCGVV | 0.724 ± 0.0082
GVGCGGGGSSCA | 0.703 ± 0.11
GVGGCRVRGLGA | 0.691 ± 0.017
GVGGENRRNGTV | 0.721 ± 0.11
GVGGGVMGVGRV | 0.665 ± 0.01
GVGQEGVGGRAV | 0.707 ± 0.03
GVGWGSSWVGYG | 0.898 ± 0.092
GVIFRRFDVGLS | 0.682 ± 0.053

Sequence | protein stability index
GVIGFNSLYGIA | 0.632 ± 0.027
GVLGCRWWGSMG | 0.657 ± 0.015
GVLPVDKFLKNW | 0.735 ± 0.098
GVLRDRAFLTCA | 0.618 ± 0.028
GVLVERLCGRGF | 0.702 ± 0.049
GVPLSGLVCPRP | 0.7103 ± 0.001
GVRGGRGQGWYR | 0.6373 ± 0.0018
GVRNISELSRLF | 0.644 ± 0.019
GVRSGAGGQVVG | 0.701 ± 0.038
GVSIGVLTGAWR | 0.646 ± 0.0015
GVVGLCLLGLGR | 0.701 ± 0.024
GVVRSAPEAASL | 0.573 ± 0.03
GVVVKDPGNAFL | 0.704 ± 0.029
GVVVRSCLMGFT | 0.619 ± 0.022
GVWGGRGQGWYR | 0.674 ± 0.0096
GVWLRTARRISK | 0.688 ± 0.037
GVWTPGPIWGRG | 0.7134 ± 0.00084
GVWVGAVRGRYG | 0.6625 ± 0.0061
GVYFMGVLGREG | 0.655 ± 0.067
GVYVGWFMRSGG | 0.678 ± 0.015
GWAGRCAPGRVG | 0.637 ± 0.093
GWCPNRRSGVWV | 0.7285 ± 0.0032
GWCVWGVFSTAL | 0.631 ± 0.033
GWEVGRGRLGVV | 0.696 ± 0.095
GWFVGLVSRSLH | 0.67 ± 0.019
GWFVVYQIGSEV | 0.564 ± 0.063

Sequence | protein stability index
GWGGGGGAGGSV | 0.683 ± 0.018
GWGGGGGAWKGV | 0.736 ± 0.072
GWGPGGSERCGL | 0.711 ± 0.025
GWLRGVCFCSWG | 0.73 ± 0.037
GWQCGVNRGGWW | 0.752 ± 0.057
GWSVGQSEMNTY | 0.73 ± 0.056
GWVFLRVARFGL | 0.684 ± 0.045
GWWCGGGGAWSG | 0.719 ± 0.041
GWWGCGGWGFVG | 0.624 ± 0.05
GYAGAIMAGYDP | 0.656 ± 0.033
GYATVILYPSID | 0.653 ± 0.029
GYDLSASRALLA | 0.65 ± 0.019
GYLNSCADKNKV | 0.664 ± 0.028
GYMFLSFLKLCW | 0.599 ± 0.021
GYPRPLPYTPST | 0.687 ± 0.023
GYPSLYCLSVFM | 0.6155 ± 0.0058
GYRGRDETNATN | 0.65 ± 0.025
GYRNIEYGFGSG | 0.575 ± 0.061
GYRVNIDIKIVY | 0.5247 ± 0.0031
GYVLVLGVKGGL | 0.648 ± 0.032
HAIPAPDLYHTQ | 0.651 ± 0.09
HAPAPPLPTIYP | 0.668 ± 0.094
HAPRSPCLPFPP | 0.687 ± 0.047
HASPPPDASPPL | 0.687 ± 0.022
HCVSPKPFLKSE | 0.695 ± 0.045
